Measurements: patent publication US20210388087A1

B1: H183/L072 VH N31D (antibody, name in Kabat numbering, V domains shown)
VH: QVQLVESGGGLVQPGRSLRLSCAASGFTFSDAWMHWVRQAPGKGLEWVAQIKDKGNAYAAYYAPSVKGRFTISRDDSKNSIYLQMNSLKTEDTAVYYCHYVHYASASTVLPAFGVDAWGQGTTVTVSS
VL: DIVMTQSPLSLPVTPGEPASISCQASQELVHMNRNTYLHWYQQKPGQAPRLLIYKVSNRFPGVPDRFSGSGSGTDFTLKISRVEAEDVGVYYCAQGTSVPFTFGQGTKLEIK
B2: H183/L072 VH A32D (antibody, name in Kabat numbering, V domains shown)
VH: QVQLVESGGGLVQPGRSLRLSCAASGFTFSNDWMHWVRQAPGKGLEWVAQIKDKGNAYAAYYAPSVKGRFTISRDDSKNSIYLQMNSLKTEDTAVYYCHYVHYASASTVLPAFGVDAWGQGTTVTVSS
VL: DIVMTQSPLSLPVTPGEPASISCQASQELVHMNRNTYLHWYQQKPGQAPRLLIYKVSNRFPGVPDRFSGSGSGTDFTLKISRVEAEDVGVYYCAQGTSVPFTFGQGTKLEIK
B3: H183/L072 VH W33D (antibody, name in Kabat numbering, V domains shown)
VH: QVQLVESGGGLVQPGRSLRLSCAASGFTFSNADMHWVRQAPGKGLEWVAQIKDKGNAYAAYYAPSVKGRFTISRDDSKNSIYLQMNSLKTEDTAVYYCHYVHYASASTVLPAFGVDAWGQGTTVTVSS
VL: DIVMTQSPLSLPVTPGEPASISCQASQELVHMNRNTYLHWYQQKPGQAPRLLIYKVSNRFPGVPDRFSGSGSGTDFTLKISRVEAEDVGVYYCAQGTSVPFTFGQGTKLEIK
B4: H183/L072 VH M34D (antibody, name in Kabat numbering, V domains shown)
VH: QVQLVESGGGLVQPGRSLRLSCAASGFTFSNAWDHWVRQAPGKGLEWVAQIKDKGNAYAAYYAPSVKGRFTISRDDSKNSIYLQMNSLKTEDTAVYYCHYVHYASASTVLPAFGVDAWGQGTTVTVSS
VL: DIVMTQSPLSLPVTPGEPASISCQASQELVHMNRNTYLHWYQQKPGQAPRLLIYKVSNRFPGVPDRFSGSGSGTDFTLKISRVEAEDVGVYYCAQGTSVPFTFGQGTKLEIK
B5: H183/L072 VH H35D (antibody, name in Kabat numbering, V domains shown)
VH: QVQLVESGGGLVQPGRSLRLSCAASGFTFSNAWMDWVRQAPGKGLEWVAQIKDKGNAYAAYYAPSVKGRFTISRDDSKNSIYLQMNSLKTEDTAVYYCHYVHYASASTVLPAFGVDAWGQGTTVTVSS
VL: DIVMTQSPLSLPVTPGEPASISCQASQELVHMNRNTYLHWYQQKPGQAPRLLIYKVSNRFPGVPDRFSGSGSGTDFTLKISRVEAEDVGVYYCAQGTSVPFTFGQGTKLEIK
B6: H183/L072 VH I51D (antibody, name in Kabat numbering, V domains shown)
VH: QVQLVESGGGLVQPGRSLRLSCAASGFTFSNAWMHWVRQAPGKGLEWVAQDKDKGNAYAAYYAPSVKGRFTISRDDSKNSIYLQMNSLKTEDTAVYYCHYVHYASASTVLPAFGVDAWGQGTTVTVSS
VL: DIVMTQSPLSLPVTPGEPASISCQASQELVHMNRNTYLHWYQQKPGQAPRLLIYKVSNRFPGVPDRFSGSGSGTDFTLKISRVEAEDVGVYYCAQGTSVPFTFGQGTKLEIK
B7: H183/L072 VH K52D (antibody, name in Kabat numbering, V domains shown)
VH: QVQLVESGGGLVQPGRSLRLSCAASGFTFSNAWMHWVRQAPGKGLEWVAQIDDKGNAYAAYYAPSVKGRFTISRDDSKNSIYLQMNSLKTEDTAVYYCHYVHYASASTVLPAFGVDAWGQGTTVTVSS
VL: DIVMTQSPLSLPVTPGEPASISCQASQELVHMNRNTYLHWYQQKPGQAPRLLIYKVSNRFPGVPDRFSGSGSGTDFTLKISRVEAEDVGVYYCAQGTSVPFTFGQGTKLEIK
B8: H183/L072 VH K52bD (antibody, name in Kabat numbering, V domains shown)
VH: QVQLVESGGGLVQPGRSLRLSCAASGFTFSNAWMHWVRQAPGKGLEWVAQIKDDGNAYAAYYAPSVKGRFTISRDDSKNSIYLQMNSLKTEDTAVYYCHYVHYASASTVLPAFGVDAWGQGTTVTVSS
VL: DIVMTQSPLSLPVTPGEPASISCQASQELVHMNRNTYLHWYQQKPGQAPRLLIYKVSNRFPGVPDRFSGSGSGTDFTLKISRVEAEDVGVYYCAQGTSVPFTFGQGTKLEIK

biological target: Human CD137 ECD (human); test: single mutant vs template dBBDu183H
Sequence (chain, as listed by the source limits assumed): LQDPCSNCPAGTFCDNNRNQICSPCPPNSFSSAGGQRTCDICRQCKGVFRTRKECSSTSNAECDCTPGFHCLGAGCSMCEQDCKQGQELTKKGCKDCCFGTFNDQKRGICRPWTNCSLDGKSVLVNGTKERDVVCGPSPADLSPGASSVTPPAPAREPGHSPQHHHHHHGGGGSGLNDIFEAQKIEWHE

Fold change of affinity, 0 fold:
B1
B2
B3
B4
B5
B6
B7
B8
